Results published in publication doi:10.1101/2022.01.16.476467.
Values belong to the substance of their own block, whether it stands above or below them.

Biological target: CASK_CAMK domain (residues 1-345) (Mus musculus) (UniProt O70589)
Test: ITC

fold decrease of the interaction against wild-type Caskin1: 9 fold
Substance: Caskin1 CID L378T (domain or fragment)

fold decrease of the binding against wild-type Caskin1: 40 fold
Substance: Caskin1 CID L378T/R379H (domain or fragment)

fold increase in the binding affinity against wild-type LiprinA2: 9 fold
Substance: LiprinA2 CID G977E and H983R (domain or fragment)

Kd: 6.94 µM
stoichiometry N: 1
Substance: reported Caskin1 peptide
